Data from the DeepSol protein solubility set.

Assay: soluble on expression in E. coli; label from the status in PepcDB or PDB records

Row | Sequence | soluble on expression in E. coli
1 | EHLPKLQPRPYSCASSSLFHPGKLHFVFNIVEFLSTATTEVLRKGVCTGWLALLVASVLQPNIHASHEDSGKALAPKISISPRTTNSFHLPDDPSIPIIMVGPGTGIAPFIGFLQHREKLQEQHPDGNFGAMWLFFGCRHKDRDYLFRKELRHFLKHGILTHLKVSFSRDAPVGEEEAPAKYVQDNIQLHGQQVARILLQENGHIYVCGDAKNMAKDVHDALVQIISKEVGVEKLEAMKTLATLKEEKRYLQDIWS | soluble
2 | MDAELFPRSRAQVAPDAVHVPDWADAGRQRRFLAACRDWARPPAGLRTVHTPGGGTMTSRQVCLGWHWYPYGYARTVVDGDGAPVKPLPDWLAELGRDAVSDALGPQAVPPVPYDIALINFYGADARMGMHRDSDEKSGAPVVSLSVGDTCVFRFGNARTRTRPYTDVELRSGDLFVFGGASRLAYHGVPRVYADTAPPELGLVGRLNITLRVSGFQDPSGE | not soluble
3 | MKIRVVSSKEEIDTLKLNEEIVHLAFRPSNKDIFKLILKCPEVKAIHIPSSYKRTISSSAQMYLSMQNIALLEGDVWGHRKDINEYSEVSEHVFDRIKELKEEGLSDEDTIEKLVRETRLSPDFVTFIISN | not soluble
4 | MSLAQFTTNPQRFDPYKNFKFRIKWGADYVAGVSKISGLKRTTEVVKHREGGDPSSSRKSPGRTEYEAITMERGVTHDVAFEQWANKVWNYGSGLGKEVSLADFRKDLVIEVYNEAGQAAMRYKVFRCWVSEFQSMSDLDANGNAVLIQHLKLETEGWERDYDLVEPKEGTFTEPAEGHHHHHH | soluble
5 | MDTLDGLKTVVAVVETNSFTAASDRLGISKALVSKYVGEVENQLGIRLFNRTTRQLALTDSGRRYYEEAIILLEQFSAMVDNVTGEQTAPRGLLRISAPVTFGEMRLAPLLPKFIALYPDLTVELVLTNGAIDMLEEGIDVRLRIGGVDDSNMIARHLTNFPLVLSASPNYAQTQGLPTTPEQLGEHHCIIDSNFRIGKQWPFISPKGRAETINVQSGLAVNSPQAVREIAIADGGIAMTPNFIVEDALADGRLLRVMPEYTTLEFGLFAIYPHRKYVARKVRCFIDFVLEQFSKK | not soluble
6 | MHRRRSGPTSQPLARGERGLPANRSFASLIAWLTSVRLLCRSPPFCCFYSLSTYTTVMYTDGQYDYDVAVVGGGPAGLTSALYTSRLGMDTIVINRGGGRAAMMTDTHNVIGVTEDVSGNEFLETAREQVQDYGGTYERGFVESVDPLADEEDGFTVTTSDGELAVKRVVLATGFADERPDPPLPRTGKGLHWCLHCDAFMFVGEPVFVMGTGEAAAHVAMIMLNYTDDVDILTRGETPEWSDETQTMLDNHPVEIVETELSGKQTDDDGWLSAYEFEDGSVREYKGGFPMLGSDYHAELADELGLDRNDDGTVAVDDHGETSVSGVYAVGDLTPGHNQIPIAMGEGADAGIAIHKDLRKYPRSVDDIESEGAVEDVEVPAVSEELFATALTHEGHAAGPRSEEAPEVRADDDLEHHHHHH | not soluble
7 | MFGKTLLRRIACSNLNLKSRKLSGKPRLAIVGSGPAGMFACNGLLRKSNFSVDVFENSPVPFGLVRYGVAPDHQEVKNVINTFDAMFEKNRERLKLFCNVNIGRDITFDELTRGYDAVLLAYGSYKTRTLDIPGSDASNVISGSEFVGWYNGVPNASTPDLTTSNVVIVGNGNVALDCARVLSTASSGLLRISDIPGDRLNVLEGANVKDIKILGRRGPEHVSFTIKELREQFKIKDWDSKLEISEIDAKNLTESLPKLERKKKRLTEVLVKNIGIANGLRQCHFIFHRIPEKIIADSNGKVQEIIVKNNETGQEETYPCGLLIYSIGYQTLVLDGVPQNDKKMIDMKDHCRVNMVAACSSQVYATGWCAHGPHGIIVDTQQQSIFVADQIAADFAQFKDSTSNGVEELLEDRKVPFISWDEWKQIDRQEQDTGKLSGKIREKFTTFEKFLTKLKKCN | not soluble
8 | SAAARATTPADGEEPAPEAEALAAARERSSRFLSGLELVKQGAEARVFRGHFQGRAAVIKHRFPKGYRHPALEARLGRRRTVQEARALLRCRRAGISAPVVFFVDYASNCLYMEEIEGSVTVRDYIQSTMETEKTPQGLSNLAKTIGQVLARMHDEDLIHGDLTTSNMLLKPPLEQLNIVLIDFGLSFISALPEDKGVDLYVLEKAFLSTHPNTETVFEAFLKSYSTSSKKARPVLKKLDEVRLRGRKRSMVG | soluble
9 | MSLKLYKEIINLIDNHQATMVEQLHQFCEINSGTTNLTGLAIMAETLCSAFKPIADTTELITLPPLSVIDMTGNTVMQSCGDVLFISKRPHLKRRILLSGHMDTVYSASNPFQKLSYLDANQINGPGVADMKGGLIVILHALAAFENTRFAEDMGWDVLINSDEEIGSPTSGSLFNKLAHRYQAALVYEPAMTPNGTLAKNRKGSGKLTLVATGRAAHAGRAFDEGRNAICYLAEAITAVHALNGQKNGVTINVGKIAGGEALNVVPDKAVAQLDIRISLPEDEIWVRNELNKIIKQLERPDYSLNVHGTFGRPVKRICAGTERLFHRIQKIGEALGLTIDWKDSGGCCDGNNLAHYGLPVLDTLGVRGGNIHSSDEYILLDSLSERAALSALLLIDLAQGGLEDLIKEGHHHHHH | soluble
10 | MVAVKGLSEREVVADTVIWPIQFTVADNQLSSLFATVDQQTQLITQFLVEKGVDRAAISLSAPAVIDKKAQQYGEDRAEFRYLATQTLTVYSKQVDQVRKIISEIGQLGKQGVVFNQDPYNNRVEFSFTGLNAIKPDMIEEATKQAREVAQKFAKDSQSTLGKIKTASQGQFSITDRDNNTPYIKNVRVVTTVEYYLSDLEHHHHHH | not soluble
11 | MIQLIATPSNALVDEPVSIRATGLPPSQIVTIKATVKDENDNVFQSQAFYKTNEAGEVDLEKTPALGGDYVGVHPMGLFFSLKPKKAFHRLMKKDVMNSPLCICLDLYDSVNWLETVRIPSKASQRVQRWFVGPGVKREQIQEGRVRGALFLPPVEFRASLLASHGFAVLALAYFAYEDLPEKPQEVDLEYFEEAANFLLSHPKIQQPGIGVISTSKGAEIGLAMACYLKQVIATVCINGPTTITIFPLRYQDLVMTPIHPALERIQVHDSGALLFRYTTQYLHNKLNSQNILPVEKAQGKILFIVGENDECLDSKLHAQKAMDRLQRHGRSSGRMLAYPGAGHLIEPPYSPVCFVAWFPVLGQPMCFGGDLMAHAAAQEHSWREIQKFFRKHLLQSGSKL | not soluble
12 | MIYTVTLNPSIDYVVQVNSLDLGAVNRAEKDMKFPGGKGINVSRVLHRLGVENVALGFTGGFTGRFIKDVLQTEGVITNFVQVDGDSRINVKIKGQEETELNGQGPSVTNEQFEQLMKQIESMQKGDYVVLAGSVPASIPTTFYESIAAFGAEKGIRVVVDASGSALQHVVKNKPFLIKPNHHELGELFGVEISTAEDILPYGRKLIEQGVEHVIVSMAGDGALLFTAEGIYEATVPKGVVINSVGAGDSLVAGFVGKYEQTKDIEKAFQYGVATGSATAFSADLCEKEKVEELLSQVIVTKR | not soluble
13 | RYLLRATTDDLYLVHDRQVAPFDGDLNDYYKWLTEQQKAERKEAQALQPVKDTANSAAAKKEQKRREAEFRKLTAPIRKTLTQLENKMDKLGVALAEAEEQLADNSLYEAENKAKLNEVLALQASSKSELEEVEMEWMSAQEELEQMELEFNQ | not soluble
14 | MGSDKIHHHHHHMANNFDLHAALTLATKPGPFVTMTLPVTGIPATDRTQFNSLLKQGKEQLEKVAPDRTWSAYAESFTPFEHGPLTNGSATGLLIMAGASDSYHYWLHTPVAATVTVTYQPNVLPILQAQDKTSDYDILLLGRDAFDLAQVRNGRPEMVNLPVDAPVTLEKALGSELRDRGRWQRSAGEHTQYSGTGSLDTAREADQRNYFMMVDAYVSQHYSNVDQVPLILVANASDQGNFRKFSQNAYLDHVVRVVQGPNLAAANQTLAALALSITEQRHQQATQIRRDAYAKVRQNQQVVQDLGPLATAAVQGQVAKLWLRDDASQPGHLTEKGTVMTATALSRQNNLYNDLALQVSRLGGQVEVLPADAMPTSNPVAAQLRLRETVAH | not soluble
15 | MIKKCLFPAAGYGTRFLPITKTIPKEMLPIVDKPLIQYAVEEAMEAGCEVMAIVTGRNKRSLEDYFDTSYEIEHQIQGTNKENALKSIRNIIEKCCFSYVRQKQMKGLGHAILTGEALIGNEPFAVILADDLCISHDHPSVLKQMTSLYQKYQCSIVAIEEVALEEVSKYGVIRGEWLEEGVYEIKDMVEKPNQEDAPSNLAVIGRYILTPDIFEILSETKPGKNNEIQITDALRTQAKRKRIIAYQFKGKRYDCGSVEGYIEASNAYYKKRLLEHHHHHH | soluble
16 | MGGSHHHHHHGMASALVKSRLNSWFQHRPPGASPERYLGLPGSLKWEDRGPSGQGQGQFLIQQVTLKIPISIEFVFESGSAQAGGNQALPRLAGSLLTQALESHAEGFRERFEKTFQLKEKGLSSGEQVLGQAALSGLLGGIGYFYGQGLVLPDIGVEGSEQKVDPALFPPVPLFTAVPSRSFFPRGFLWDEGFHQLVVQRWDPSLTREALGHWLGLLNADGWIGREQILGDEARARVPPEFLVQRAVHANPPTLLLPVAHMLEVGDPDDLAFLRKALPRLHAWFSWLHQSQAGPLPLSYRWRGRDPALPTLLNPKTLPSGLDDYPRASHPSVTERHLDLRCWVALGARVLTRLAEHLGEAEVAAELGPLAASLEAAESLDELHWAPELGVFADFGNHTKAVQLKPRPPQGLVRVVGRPQPQLQYVDALGYVSLFPLLLRLLDPTSSRLGPLLDILADSRHLWSPFGLRSLAASSSFYGQRNSEHDPPYWRGAVWLNVNYLALGALHHYGHLEGPHQARAAKLHGELRANVVGNVWRQYQATGFLWEQYSDRDGRGMGCRPFHGWTSLVLLAMAEDY | not soluble
17 | MGSDKIHHHHHHMTNRYDAVIIGAGHNGLVCGAYLARKGFKVCLLERRELAGGAAVSEAVWPGYRVSTASYTMALLQPRIIDELELAKYGYEIVVPPPMLHLYGDGRSLLFRPEGERLSADIARFSEADADAYGKYRAHMARLGKMVAGMLWETPPDPADSTLSARSRLLGFAWRFRDMGEQFYDLYDVLTLSARDYLARWFESDEMIAALGFYASCGGAATSICSPGSAYVLLRGFIRDHTTSAGPAGFVRGGMGSISEAIAASGKAYGMEVRCNAPVASVEISGERATGVRLSSGELIEAGCVISNVATKVLFQQLVGAQNVPPEFLARVRQIRDRSTAFKVNLALRRLPTFKDFDARSAGFAYPAQVRLAPSVEYLERAWDAAKYGEISPRPPLVVLTPSAVDPGVAPKGKHLMSIFGQHAPYALRDGPWDDAQRERLYQITLDTLAAYAPDIRECIDDAQVLSPADLERIFALPGGHVHHGELSADQIFFRRPVQGAADYCTPVKGLYQCGASVHPGGGVTGVPGYNAAHVVVRRERH | not soluble
18 | MGSDKIHHHHHHMTRYQHLATLLAERIEQGLYRHGEKLPSVRSLSQEHGVSISTVQQAYQTLETMKLITPQPRSGYFVAQRKAQPPVPPMTRPVQRPVEITQWDQVLDMLEAHSDSSIVPLSKSTPDVEAPSLKPLWRELSRVVQHNLQTVLGYDLLAGQRVLREQIARLMLDSGSVVTADDIIITSGCHNSMSLALMAVCKPGDIVAVESPCYYGSMQMLRGMGVKVIEIPTDPETGISVEALELALEQWPIKGIILVPNCNNPLGFIMPDARKRAVLSLAQRHDIVIFEDDVYGELATEYPRPRTIHSWDIDGRVLLCSSFSKSIAPGLRVGWVAPGRYHDKLMHMKYAISSFNVPSTQMAAATFVLEGHYHRHIRRMRQIYQRNLALYTCWIREYFPCEICITRPKGGFLLWIELPEQVDMVCVARQLCRMKIQVAAGSIFSASGKYRNCLRINCALPLSETYREALKQIGEAVYRAME | not soluble
